Source: US20210130436A1 (published 2021)
Each block holds one binder with its values, some of them ahead of it.

Columns and labels:
PD-1-Fc = molecular target: T1, PD-1-Fc (UniProt Q15116 25-167); assay: ForteBio (BLI), PD-1-Fc
T1 construct: not shown: Fc not described

CD96 = molecular target: T2, CD96 (UniProt P40200 22-585, limits assumed); assay: flow cytometry on cells expressing CD96
T2 construct: whole, on cells
T2 sequence (looked up): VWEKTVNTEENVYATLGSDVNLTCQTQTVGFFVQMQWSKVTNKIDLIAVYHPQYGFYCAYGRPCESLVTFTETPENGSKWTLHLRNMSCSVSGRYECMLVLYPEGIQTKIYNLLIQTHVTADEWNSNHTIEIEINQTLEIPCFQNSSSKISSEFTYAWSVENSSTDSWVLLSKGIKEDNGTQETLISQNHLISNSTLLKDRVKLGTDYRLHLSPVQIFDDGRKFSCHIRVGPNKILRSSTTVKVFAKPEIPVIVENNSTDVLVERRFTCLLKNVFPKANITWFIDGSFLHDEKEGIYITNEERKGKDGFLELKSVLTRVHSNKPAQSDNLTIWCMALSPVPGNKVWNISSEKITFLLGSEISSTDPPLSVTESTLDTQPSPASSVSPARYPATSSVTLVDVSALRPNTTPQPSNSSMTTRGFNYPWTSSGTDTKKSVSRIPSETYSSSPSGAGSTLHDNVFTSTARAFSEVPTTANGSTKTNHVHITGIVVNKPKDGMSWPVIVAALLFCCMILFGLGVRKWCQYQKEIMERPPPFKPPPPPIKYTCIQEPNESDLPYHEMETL

[1] = molecular target: T3, human CTLA-4, full-length, on transduced CHO cells (human, UniProt P16410 36-223); assay: flow cytometry MFI on CHO/huCTLA4 relative to WT CD80 ECD-Fc (R&D)
T3 construct: Full-length surface expression construct transduced into CHO cells by lentivirus; also called huCTLA4

[2] = molecular target: T4, human PD-L1, full-length, on transduced CHO cells (human, UniProt Q9NZQ7 19-290); assay: flow cytometry MFI on CHO/huPD-L1 relative to WT CD80 ECD-Fc (R&D)
T4 construct: Full-length surface expression construct transduced into CHO cells by lentivirus; also called huPD-L1; CD274

[3] = molecular target: T5, human CD28, endogenous on Jurkat/IL2 reporter cells (human, UniProt P10747 19-220); assay: flow cytometry MFI on Jurkat (CD28) relative to WT CD80 ECD-Fc (R&D)
T5 construct: Endogenously expressed on Jurkat/IL2 reporter cells

[4] = molecular target: T4, human PD-L1, full-length, on transduced …; assay: flow cytometry; binding to CHO/huPD-L1 compared to binding to Jurkat (CD28)
[5] = molecular target: T6, human PD-L1, expressed on cells (human, UniProt Q9NZQ7 19-290); assay: flow cytometry on CHO/PD-L1 cells, then fluorescently conjugated PD-1-Fc (FIG. 9D)
T6 construct: On CHO/PD-L1, K562/OKT3/PD-L1 and CHO/OKT3/PD-L1 aAPC, huPD-L1-transduced MC38 cells, or primary human monocytes; also called huPD-L1; hPD-L1
T6 sequence (Q9NZQ7 19-290): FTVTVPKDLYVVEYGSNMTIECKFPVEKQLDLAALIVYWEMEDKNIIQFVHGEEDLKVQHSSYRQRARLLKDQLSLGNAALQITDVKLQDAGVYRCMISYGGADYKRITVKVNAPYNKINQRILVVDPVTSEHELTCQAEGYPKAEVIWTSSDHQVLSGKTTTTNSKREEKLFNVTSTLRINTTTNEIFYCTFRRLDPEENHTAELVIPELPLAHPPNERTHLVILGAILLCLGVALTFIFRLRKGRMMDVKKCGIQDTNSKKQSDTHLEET

T4 sequence (Q9NZQ7 19-290): as above
T3 sequence (P16410 36-223): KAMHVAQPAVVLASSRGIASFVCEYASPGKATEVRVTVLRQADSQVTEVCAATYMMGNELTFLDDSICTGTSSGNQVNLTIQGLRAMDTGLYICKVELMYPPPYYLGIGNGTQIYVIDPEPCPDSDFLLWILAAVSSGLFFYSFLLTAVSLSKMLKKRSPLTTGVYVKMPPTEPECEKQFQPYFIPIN
T1 sequence (Q15116 25-167): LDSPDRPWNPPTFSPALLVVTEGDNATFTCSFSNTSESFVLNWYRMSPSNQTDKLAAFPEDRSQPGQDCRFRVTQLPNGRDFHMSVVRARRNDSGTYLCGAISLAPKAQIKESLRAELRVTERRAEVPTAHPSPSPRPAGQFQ

Response Units (PD-1-Fc): 0.005 Response Units
B1: PD-L2 V89D IgV-Fc (Fc fusion, not shown: a dimerising Fc or GST)
chain: LFTVTVPKELYIIEHGSNVTLECNFDTGSHVNLGAITASLQKVENDTSPHRERATLLEEQLPLGKASFHIPQVQVRDEGQYQCIIIYGDAWDYKYLTLKVKA

MFI at 100 nM (CD96): 1680 MFI
B2: CD112 Y33H/N47K/Q79R/N106Y/A112V IgV-Fc (Fc fusion, not shown: a dimerising Fc or GST)
chain: QDVRVQVLPEVRGQLGGTVELPCHLLPPVPGLHISLVTWQRPDAPAKHQNVAAFHPKMGPSFPSPKPGSERLSFVSAKRSTGQDTEAELQDATLALHGLTVEDEGYYTCEFVTFPKGSVRGMTWLRV

Fold change to WT CD80 [1]: 1.44 fold
Fold change to WT CD80 [2]: 3.05 fold
Fold change to WT CD80 [3]: 0.35 fold
Ratio of PDL1:CD28 [4]: 6 ratio
B3: variant CD80 IgV-Fc E35D/M47V/A71G (Fc fusion, not shown: a dimerising Fc or GST)
chain: VIHVTKEVKEVATLSCGHNVSVEELAQTRIYWQKDKKMVLTMMSGDVNIWPEYKNRTIFDITNNLSIVILGLRPSDEGTYECVVLKYEKDAFKREHLAEVTLSVKAD

binding result [5]: binds
B4: CD80 variant H18Y/V22A/E35D/M47V/T62S/A71G IgV (SEQ ID NO: 2275)-Fc (inert) (Fc fusion, not shown: small tags and cut ends)
chain: VIHVTKEVKEVATLSCGYNVSAEELAQTRIYWQKDKKMVLTMMSGDVNIWPEYKNRTIFDISNNLSIVILGLRPSDEGTYECVVLKYEKDAFKREHLAEVTLSVKADEPKSSDKTHTCPPCPAPEAEGAPSVFLFPPKPKDTLMISRTPEVTCVVVDVSHEDPEVKFNWYVDGVEVHNAKTKPREEQYNSTYRVVSVLTVLHQDWLNGKEYKCKVSNKALPAPIEKTISKAKGQPREPQVYTLPPSREEMTKNQVSLTCLVKGFYPSDIAVEWESNGQPENNYKTTPPVLDSDGSFFLYSKLTVDKSRWQQGNVFSCSVMHEALHNHYTQKSLSLSPG
notes: also called H18Y/V22A/E35D/M47V/T62S/A71G CD80 IgV-Fc; CD80 vIgD-Fc
